According to the supplement of paper PMC7877785:
± gives the uncertainty stated by the source.

Assay: self-splicing fitness, log relative to wild type (ln ratio); higher = more splicing; Tetrahymena group I intron in knt gene, E. coli kanamycin selection, DiMSum; sequences stand for … in CUCUCU…GGAGGGAAAAGUUAUCAGGCAUGCACCUGGUAGCUAGUCUUUAAACCAAUAGAUUGCAUCGGUUUAAAAGGCAAGACCGUCAAAUUGCGGGAAAGGGGUCAACAGCCGUUCAGUACCAAGUCUCAGGGGAAACUUUGAGAUGGCCUUGCAAAGGGUAUGGUAAUAAGCUGACGGACAUGGUCCUAACCACGCAGCCAAGUCCUAAGUCAACAGAUCUUCUGUUGAUAUGGAUGCAGUUCACAGACUAAAUGUCGGUCGGGGAAGAUGUAUUCUUCUCAUAAGAUAUAGUCGGACCUCUCCUUAAUGGGAGCUAGCGGAUGAAGUGAUGCAACACUGGAGCCGCUGGGAACUAAUUUGUAUGCGAAAGUAUAUUGAUUAGUUUUGGAGUACUCGUGGUCG
Method in brief: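 The eight P1ex-region nucleotides of an intron in the knt kanamycin-resistance gene on pET-22b(+) were all randomised and the library put into E. coli BL21(DE3). Six replicate transformations were grown overnight at 37°C or 30°C on LB agar with or without 25 μg/mL kanamycin, together with 100 μg/mL carbenicillin, 50 μM IPTG and 0.2% rhamnose. Colonies were pooled and amplicon-sequenced on an Illumina HiSeq 2500. Fitness from DiMSum is the error-weighted combination of wild-type-normalised replicate fold changes, kanamycin over none.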

Sequence: UAUUAGCAAUAUUACGGCAA
- self-splicing fitness (ln) (30 °C): -1.06 ± 0.14
- self-splicing fitness (ln) (37 °C): -0.784 ± 0.15

Sequence: AGGGAGCAAUAUUACGAUUA
- self-splicing fitness (ln) (30 °C): -2.12 ± 0.18
- self-splicing fitness (ln) (37 °C): -2.51 ± 0.35

Sequence: GGGUAGCAAUAUUACGCGAG
- self-splicing fitness (ln) (30 °C): -1.85 ± 0.32
- self-splicing fitness (ln) (37 °C): -0.555 ± 0.18

Sequence: UCCGAGCAAUAUUACGUUAG
- self-splicing fitness (ln) (30 °C): -3.14 ± 0.15
- self-splicing fitness (ln) (37 °C): -2.56 ± 0.24

Sequence: CCUAAGCAAUAUUACGCUUG
- self-splicing fitness (ln) (30 °C): -4.18 ± 0.36
- self-splicing fitness (ln) (37 °C): -2.98 ± 0.26

Sequence: UACAAGCAAUAUUACGCCGU
- self-splicing fitness (ln) (30 °C): -2.13 ± 0.16
- self-splicing fitness (ln) (37 °C): -1.62 ± 0.18

Sequence: GCAGAGCAAUAUUACGAUUA
- self-splicing fitness (ln) (30 °C): -2.28 ± 0.22
- self-splicing fitness (ln) (37 °C): 0.0469 ± 0.18

Sequence: UGGAAGCAAUAUUACGCAGU
- self-splicing fitness (ln) (30 °C): -2.85 ± 0.4
- self-splicing fitness (ln) (37 °C): -1.6 ± 0.18

Sequence: UAGGAGCAAUAUUACGGUGA
- self-splicing fitness (ln) (37 °C): -1.08 ± 0.27

Sequence: UUGAAGCAAUAUUACGAUUA
- self-splicing fitness (ln) (30 °C): 0.283 ± 0.096
- self-splicing fitness (ln) (37 °C): -0.455 ± 0.096

Sequence: UCGCAGCAAUAUUACGAUUG
- self-splicing fitness (ln) (30 °C): -3.66 ± 0.18
- self-splicing fitness (ln) (37 °C): -1.9 ± 0.16

Sequence: AGCUAGCAAUAUUACGUAAC
- self-splicing fitness (ln) (30 °C): -2.01 ± 0.15
- self-splicing fitness (ln) (37 °C): -0.993 ± 0.16

Sequence: GAGAAGCAAUAUUACGAUAG
- self-splicing fitness (ln) (30 °C): -3.28 ± 0.14
- self-splicing fitness (ln) (37 °C): -2.28 ± 0.17

Sequence: UAUGAGCAAUAUUACGACAG
- self-splicing fitness (ln) (37 °C): -1.78 ± 0.36

Sequence: UCAUAGCAAUAUUACGUGCU
- self-splicing fitness (ln) (30 °C): -2.6 ± 0.17
- self-splicing fitness (ln) (37 °C): -1.99 ± 0.11

Sequence: GCUUAGCAAUAUUACGUGAA
- self-splicing fitness (ln) (30 °C): -0.117 ± 0.064
- self-splicing fitness (ln) (37 °C): 0.311 ± 0.074

Sequence: UCGGAGCAAUAUUACGGUGA
- self-splicing fitness (ln) (30 °C): -1.82 ± 0.27
- self-splicing fitness (ln) (37 °C): -1.05 ± 0.2

Sequence: GAUUAGCAAUAUUACGAGAC
- self-splicing fitness (ln) (30 °C): -1.51 ± 0.3
- self-splicing fitness (ln) (37 °C): -1.1 ± 0.22

Sequence: UUCAAGCAAUAUUACGCUCC
- self-splicing fitness (ln) (30 °C): -1.54 ± 0.16
- self-splicing fitness (ln) (37 °C): -1.86 ± 0.24

Sequence: UAGAAGCAAUAUUACGGGGU
- self-splicing fitness (ln) (30 °C): -3.13 ± 0.17
- self-splicing fitness (ln) (37 °C): -1.27 ± 0.22

Sequence: CCACAGCAAUAUUACGGCGU
- self-splicing fitness (ln) (30 °C): -3.24 ± 0.21
- self-splicing fitness (ln) (37 °C): -2.75 ± 0.31

Sequence: AUGUAGCAAUAUUACGACCG
- self-splicing fitness (ln) (30 °C): -0.834 ± 0.12
- self-splicing fitness (ln) (37 °C): -0.5 ± 0.17

Sequence: GUUCAGCAAUAUUACGAUAU
- self-splicing fitness (ln) (30 °C): -0.361 ± 0.086
- self-splicing fitness (ln) (37 °C): 0.524 ± 0.097

Sequence: CAUAAGCAAUAUUACGGCCG
- self-splicing fitness (ln) (30 °C): 0.39 ± 0.15
- self-splicing fitness (ln) (37 °C): 0.125 ± 0.16

Sequence: GGCUAGCAAUAUUACGUCCG
- self-splicing fitness (ln) (30 °C): -2.88 ± 0.3
- self-splicing fitness (ln) (37 °C): -0.381 ± 0.17

Sequence: AGUGAGCAAUAUUACGACAG
- self-splicing fitness (ln) (30 °C): -2.83 ± 0.33
- self-splicing fitness (ln) (37 °C): -1.67 ± 0.34

Sequence: AACCAGCAAUAUUACGCUCG
- self-splicing fitness (ln) (30 °C): -0.795 ± 0.075
- self-splicing fitness (ln) (37 °C): 0.274 ± 0.097

Sequence: GACCAGCAAUAUUACGCCAC
- self-splicing fitness (ln) (37 °C): -2.73 ± 0.46

Sequence: AUAAAGCAAUAUUACGUCGU
- self-splicing fitness (ln) (30 °C): -0.554 ± 0.046
- self-splicing fitness (ln) (37 °C): 0.314 ± 0.064

Sequence: ACUGAGCAAUAUUACGUACG
- self-splicing fitness (ln) (30 °C): -2.42 ± 0.22
- self-splicing fitness (ln) (37 °C): -2.07 ± 0.25

Sequence: UACCAGCAAUAUUACGUACU
- self-splicing fitness (ln) (30 °C): -2.92 ± 0.17
- self-splicing fitness (ln) (37 °C): -1.4 ± 0.15

Sequence: CAGUAGCAAUAUUACGCACU
- self-splicing fitness (ln) (30 °C): -2.19 ± 0.18
- self-splicing fitness (ln) (37 °C): -1.34 ± 0.17

Sequence: CCCUAGCAAUAUUACGUUCU
- self-splicing fitness (ln) (30 °C): -4.33 ± 0.23
- self-splicing fitness (ln) (37 °C): -3.61 ± 0.19

Sequence: AUGUAGCAAUAUUACGCAGG
- self-splicing fitness (ln) (30 °C): -2.06 ± 0.22
- self-splicing fitness (ln) (37 °C): -1.7 ± 0.19

Sequence: CUCUAGCAAUAUUACGUUUU
- self-splicing fitness (ln) (30 °C): -4.1 ± 0.22
- self-splicing fitness (ln) (37 °C): -3.15 ± 0.16

Sequence: GCCCAGCAAUAUUACGUUGG
- self-splicing fitness (ln) (30 °C): -3.22 ± 0.13
- self-splicing fitness (ln) (37 °C): -2.92 ± 0.15

Sequence: GGCAAGCAAUAUUACGAUCA
- self-splicing fitness (ln) (30 °C): -0.849 ± 0.12
- self-splicing fitness (ln) (37 °C): -0.349 ± 0.098

Sequence: GCAAAGCAAUAUUACGGGAA
- self-splicing fitness (ln) (30 °C): -2.43 ± 0.1
- self-splicing fitness (ln) (37 °C): -0.474 ± 0.081

Sequence: GUCCAGCAAUAUUACGGAUA
- self-splicing fitness (ln) (30 °C): -0.361 ± 0.056
- self-splicing fitness (ln) (37 °C): 0.0186 ± 0.063

Sequence: GCGCAGCAAUAUUACGUUUU
- self-splicing fitness (ln) (30 °C): -0.735 ± 0.049
- self-splicing fitness (ln) (37 °C): -0.277 ± 0.063

Sequence: CACGAGCAAUAUUACGAACA
- self-splicing fitness (ln) (37 °C): -2.04 ± 0.47

Sequence: GUGAAGCAAUAUUACGGGAG
- self-splicing fitness (ln) (30 °C): -2.09 ± 0.1
- self-splicing fitness (ln) (37 °C): -0.567 ± 0.094

Sequence: GAUGAGCAAUAUUACGUCGG
- self-splicing fitness (ln) (37 °C): -2.87 ± 0.34

Sequence: ACUCAGCAAUAUUACGCUUU
- self-splicing fitness (ln) (30 °C): -1.85 ± 0.095
- self-splicing fitness (ln) (37 °C): -0.42 ± 0.11

Sequence: AUUGAGCAAUAUUACGUGUG
- self-splicing fitness (ln) (30 °C): -2.38 ± 0.11
- self-splicing fitness (ln) (37 °C): -2.41 ± 0.16

Sequence: CGUAAGCAAUAUUACGAAAC
- self-splicing fitness (ln) (30 °C): -2.84 ± 0.32

Sequence: ACCGAGCAAUAUUACGAACU
- self-splicing fitness (ln) (30 °C): -2.13 ± 0.13
- self-splicing fitness (ln) (37 °C): -0.803 ± 0.14

Sequence: GACGAGCAAUAUUACGUAAU
- self-splicing fitness (ln) (30 °C): -2.61 ± 0.34
- self-splicing fitness (ln) (37 °C): -2.16 ± 0.17

Sequence: CCCUAGCAAUAUUACGGUGC
- self-splicing fitness (ln) (30 °C): -3.43 ± 0.12
- self-splicing fitness (ln) (37 °C): -2.88 ± 0.17

Sequence: UCUUAGCAAUAUUACGCACU
- self-splicing fitness (ln) (30 °C): -2.05 ± 0.33
- self-splicing fitness (ln) (37 °C): -0.732 ± 0.36
